Assay results published in US20160244728A1, “CULTURE METHOD FOR PLURIPOTENT STEM CELLS AND KIT AND MEDIUM FOR CULTURE OF PLURIPOTENT STEM CELLS USED THEREIN” (FUJIFILM Corporation, priority 2013, published 2016).

Experiment: Evaluation of adsorbability with respect to culture dish
Type: physicochemical
Details: FIG. 1; for adsorbability with respect to the plate (in words): 0 to 200 pmol/cm^2 added, 2 hours at 37° C., compared with RCP-11
Method: Each of the polypeptides obtained as above was diluted with a predetermined buffer such that they could be added to wells at a predetermined final concentration of 0 pmol/cm^2 to 200 pmol/cm^2. Thereafter, each of the polypeptides was added in an amount of 64 μL to a plasma-treated 96-well plate made of polystyrene (Tissue Culture-Treated, Falcon). Each of the polypeptides was allowed to adsorb onto the plate by being incubated for 2 hours at 37° C., and then the wells were washed twice with PBS, thereby obtaining surfaces coated with each of the polypeptides of RCP-1 to RCP-16.
Among the surfaces coated with each of the polypeptides obtained as above, the surfaces coated with RCP-1 and RCP-11 to RCP-16 were applied with 64 μL of a borate buffer and 64 μL of 1 N NaOH, followed by incubation for 24 hours at 80° C. and 100% humidity. After the resultant was air-cooled, 75 μL of a borate buffer was added to each well, and 50 μL of a reaction solution obtained by mixing OPA (o-phthalaldehyde: Wako Pure Chemical Industries, Ltd./methanol solution (160 mg/ml)) with N-acetyl-L-cysteine (NAC: Wako Pure Chemical Industries, Ltd.)/borate buffer solution (2 mg/ml) at a ratio of 1:100 (mass ratio) was further added thereto. After incubation for 30 minutes at 40° C., the fluorescence intensity thereof was measured by using an Envision Multilabel Counter (PerkinElmer Inc.) (excitation 355 nm/fluorescence 486 nm). A calibration curve was separately prepared from each of the polypeptide solutions so as to calculate the amount of the polypeptide adsorbed. In FIG. 1, a black rhombus indicates RCP-1, a black square indicates RCP-11, a black triangle indicates RCP-12, a black circle indicates RCP-13, a white rhombus indicates RCP-14, a white square indicates RCP-15, and a white triangle indicates RCP-16.

Molecule	amount adsorbed onto the plate relative to the polypeptide including SEQ ID NO: 3	adsorbability with respect to the plate (in words)
RCP-13: recombinant polypeptide, human vitronectin positions 1-55, 56-129 (protein, Synthetic Peptide RCP-13) GPLGDQESCKGRCTEGFNVDKKCQCDELCSYYQSCCTDYTAECKPQVTRGDVFTMPEDEYTVYDDGEEKNNATVHEQVGGPSLTSDLQAQSKGNPEQTPVLKPEEEAPAPEVGASKPEGIDSRPETLHPGRPQP	about 1/4	–
RCP-15: recombinant polypeptide, human vitronectin positions 56-459 (protein, Synthetic Peptide RCP-15) GPLGYTVYDDGEEKNNATVHEQVGGPSLTSDLQAQSKGNPEQTPVLKPEEEAPAPEVGASKPEGIDSRPETLHPGRPQPPAEEELCSGKPFDAFTDLKNGSLFAFRGQYCYELDEKAVRPGYPKLIRDVWGIEGPIDAAFTRINCQGKTYLFKGSQYWRFEDGVLDPDYPRNISDGFDGIPDNVDAALALPAHSYSGRERVYFFKGKQYWEYQFQHQPSQEECEGSSLSAVFEHFAMMQRDSWEDIFELLFWGRTSAGTRQPQFISRDWHGVPGQVDAAMAGRIYISGMAPRPSLAKKQRFRHRNRKGYRSQRGHSRGRNQNSRRPSRATWLSLFSSEESNLGANNYDDYRMDWLVPATCEPIQSVFFFSGDKYYRVNLRTRRVDTVDPPYPRSIAQYWLGCPAPGHL	–	excellent adsorbability
RCP-16: recombinant polypeptide, human vitronectin positions 269-459 (protein, Synthetic Peptide RCP-16) GPLGPSQEECEGSSLSAVFEHFAMMQRDSWEDIFELLFWGRTSAGTRQPQFISRDWHGVPGQVDAAMAGRIYISGMAPRPSLAKKQRFRHRNRKGYRSQRGHSRGRNQNSRRPSRATWLSLFSSEESNLGANNYDDYRMDWLVPATCEPIQSVFFFSGDKYYRVNLRTRRVDTVDPPYPRSIAQYWLGCPAPGHL	–	excellent adsorbability
